Assay results published in patent US20130295095A1 (GEORG AUGUST UNIVERSIT T G TTINGEN STIFTUNG FFENTLICHEN …, published 2013).

Biological target: T1, AβpE3-38 (human, UniProt P05067 674-709, pyroglutamate at position 3 (N-terminal residue))
T1 construct: range 3-38; The range counts on Aβ numbering, not on the APP precursor; also called human AβpE3-38
Assay: ELISA screening of hybridoma clones
Text: The AβpE3 oligomere specific antibodies 9D5H6 (IgG2b) and 8C4D2 (IgG1) were generated by immunizing three Balb/c mice with AβpE3-38. After preparation of the lymph nodes cells were fused with the myeloma cell line P3-X63-Ag8. The hybridoma supernatants of mixed clones were screened by ELISA and subcloned. The monoclonal antibodies 9D5 and 8C4 were selected by ELISA against different N-terminal Aβ epitopes. Clones producing signals with AβpE3-38 and AβpE3-42, but no signal with […] were isolated and further characterized. For comparison, Aβ antibodies 4G8 (Aβ epitope 17-24; Covance), W0-2 (Aβ epitope 4-8; The Genetics Company), NT78 (against generic Aβ1-16, Synaptic Systems) and 2-48 (against N-terminal AβpE3, Synaptic Systems; Wirths, O., et al. J Neural Transm 117, 85-96 (2010)) were used. GFAP (rabbit) and IBA1 (rabbit) antisera were from Synaptic Systems and Wako Pure Chemicals respectively. Peptides were purchased from PSL (Heidelberg, Germany), reconstituted as indicated below and immediately frozen until further use.

T1 sequence (P05067 674-709): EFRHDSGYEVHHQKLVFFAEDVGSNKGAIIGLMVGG

binding result: binds
B1: PG3-38 9D5H6 (antibody, V domains shown)
VH: QLQQSGAELMKPGASVKISCKATGYTFSSYWIEWVKQRPGHGLEWIGEILPGRGSTHYNEKFKGKATFTADTSSNTAYMQLSSLTSEDSAVYYCARSPITTSDYWGQGTTLTVSS
VL: DVVMTQTPLSLPVSLGDQASISCRSSQSLLHSNGNTYLHWYLQKPGQSPKLLIYKVSNRFSGVPDRFSGSGSGTDFTLKISRVEAEDLGVYFCSQSTHVPLTFGAGT
notes: The printed VH starts at QLQQ and the printed VL ends at FGAGT, so both may be slightly truncated; also called antibody obtainable from hybridoma DSM ACC3056
